Reference: patent US20070219139A1 (POSCO, published 2007)
Where no end group is shown, it is not given here. [ ]: non-standard residue; d: D form.

T1: formyl peptide receptor (UniProt P21462 1-350, limits assumed)
T1 sequence (looked up): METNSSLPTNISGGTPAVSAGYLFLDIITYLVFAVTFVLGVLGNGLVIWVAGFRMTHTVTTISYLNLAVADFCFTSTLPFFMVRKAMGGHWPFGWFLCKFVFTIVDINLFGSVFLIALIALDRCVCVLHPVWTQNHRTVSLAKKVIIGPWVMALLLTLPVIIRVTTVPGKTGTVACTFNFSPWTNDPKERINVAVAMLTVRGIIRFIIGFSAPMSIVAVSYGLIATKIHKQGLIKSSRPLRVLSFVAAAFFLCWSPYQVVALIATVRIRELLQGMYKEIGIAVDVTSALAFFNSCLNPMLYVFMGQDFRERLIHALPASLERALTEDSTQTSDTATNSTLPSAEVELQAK

T2: formyl peptide receptor-like 1 (UniProt P25090 1-351, limits assumed)
T2 sequence (looked up): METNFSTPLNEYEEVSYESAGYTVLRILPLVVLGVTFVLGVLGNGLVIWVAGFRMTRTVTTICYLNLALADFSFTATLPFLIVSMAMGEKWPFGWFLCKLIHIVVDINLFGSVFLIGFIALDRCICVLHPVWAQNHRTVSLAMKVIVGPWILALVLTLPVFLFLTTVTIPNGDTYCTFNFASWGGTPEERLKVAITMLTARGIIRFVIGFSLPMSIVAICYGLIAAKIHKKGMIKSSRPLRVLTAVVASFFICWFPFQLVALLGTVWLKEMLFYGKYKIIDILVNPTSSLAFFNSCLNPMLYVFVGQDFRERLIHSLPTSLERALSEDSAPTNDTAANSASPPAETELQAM

B1: Trp-Lys-Tyr-Met-Gly-D-Met-NH2 (peptide)
peptide: WKYMG[dM]-NH2
modifications: N-terminus assumed
SMILES: CSCC[C@H](NC(=O)[C@H](Cc1ccc(O)cc1)NC(=O)[C@H](CCCCN)NC(=O)[C@@H](N)Cc1c[nH]c2ccccc12)C(=O)NCC(=O)N[C@H](CCSC)C(N)=O
B2: Trp-Lys-Gly-Met-Val-D-Met-NH2 (peptide)
peptide: WKGMV[dM]-NH2
modifications: N-terminus assumed
SMILES: CSCC[C@H](NC(=O)CNC(=O)[C@H](CCCCN)NC(=O)[C@@H](N)Cc1c[nH]c2ccccc12)C(=O)N[C@H](C(=O)N[C@H](CCSC)C(N)=O)C(C)C
B3: Trp-Glu-Tyr-Met-Val-D-Met-NH2 (peptide)
peptide: WEYMV[dM]-NH2
modifications: N-terminus assumed
SMILES: CSCC[C@H](NC(=O)[C@H](Cc1ccc(O)cc1)NC(=O)[C@H](CCC(=O)O)NC(=O)[C@@H](N)Cc1c[nH]c2ccccc12)C(=O)N[C@H](C(=O)N[C@H](CCSC)C(N)=O)C(C)C
B4: Trp-Arg-Tyr-Met-Val-D-Met-NH2 (peptide)
peptide: WRYMV[dM]-NH2
modifications: N-terminus assumed
SMILES: CSCC[C@H](NC(=O)[C@H](Cc1ccc(O)cc1)NC(=O)[C@H](CCCNC(=N)N)NC(=O)[C@@H](N)Cc1c[nH]c2ccccc12)C(=O)N[C@H](C(=O)N[C@H](CCSC)C(N)=O)C(C)C
B5: Trp-Asp-Tyr-Met-Val-D-Met-NH2 (peptide)
peptide: WDYMV[dM]-NH2
modifications: N-terminus assumed
SMILES: CSCC[C@H](NC(=O)[C@H](Cc1ccc(O)cc1)NC(=O)[C@H](CC(=O)O)NC(=O)[C@@H](N)Cc1c[nH]c2ccccc12)C(=O)N[C@H](C(=O)N[C@H](CCSC)C(N)=O)C(C)C
B6: Trp-Lys-Glu-Met-Val-D-Met-NH2 (peptide)
peptide: WKEMV[dM]-NH2
modifications: N-terminus assumed
SMILES: CSCC[C@H](NC(=O)[C@H](CCC(=O)O)NC(=O)[C@H](CCCCN)NC(=O)[C@@H](N)Cc1c[nH]c2ccccc12)C(=O)N[C@H](C(=O)N[C@H](CCSC)C(N)=O)C(C)C
B7: Trp-Lys-Phe-Met-Val-D-Met-NH2 (peptide)
peptide: WKFMV[dM]-NH2
modifications: N-terminus assumed
SMILES: CSCC[C@H](NC(=O)[C@H](Cc1ccccc1)NC(=O)[C@H](CCCCN)NC(=O)[C@@H](N)Cc1c[nH]c2ccccc12)C(=O)N[C@H](C(=O)N[C@H](CCSC)C(N)=O)C(C)C
B8: Trp-Lys-Asp-Met-Val-D-Met-NH2 (peptide)
peptide: WKDMV[dM]-NH2
modifications: N-terminus assumed
SMILES: CSCC[C@H](NC(=O)[C@H](CC(=O)O)NC(=O)[C@H](CCCCN)NC(=O)[C@@H](N)Cc1c[nH]c2ccccc12)C(=O)N[C@H](C(=O)N[C@H](CCSC)C(N)=O)C(C)C
B9: Trp-Lys-Tyr-Met-Tyr-D-Met-NH2 (peptide)
peptide: WKYMY[dM]-NH2
modifications: N-terminus assumed
SMILES: CSCC[C@H](NC(=O)[C@H](Cc1ccc(O)cc1)NC(=O)[C@H](CCCCN)NC(=O)[C@@H](N)Cc1c[nH]c2ccccc12)C(=O)N[C@@H](Cc1ccc(O)cc1)C(=O)N[C@H](CCSC)C(N)=O
B10: Trp-His-Tyr-Met-Val-D-Met-NH2 (peptide)
peptide: WHYMV[dM]-NH2
modifications: N-terminus assumed
SMILES: CSCC[C@H](NC(=O)[C@H](Cc1ccc(O)cc1)NC(=O)[C@H](Cc1c[nH]cn1)NC(=O)[C@@H](N)Cc1c[nH]c2ccccc12)C(=O)N[C@H](C(=O)N[C@H](CCSC)C(N)=O)C(C)C
B11: Trp-Lys-His-Met-Val-D-Met-NH2 (peptide)
peptide: WKHMV[dM]-NH2
modifications: N-terminus assumed
SMILES: CSCC[C@H](NC(=O)[C@H](Cc1c[nH]cn1)NC(=O)[C@H](CCCCN)NC(=O)[C@@H](N)Cc1c[nH]c2ccccc12)C(=O)N[C@H](C(=O)N[C@H](CCSC)C(N)=O)C(C)C
B12: Trp-Lys-Trp-Met-Val-D-Met-NH2 (peptide)
peptide: WKWMV[dM]-NH2
modifications: N-terminus assumed
SMILES: CSCC[C@H](NC(=O)[C@H](Cc1c[nH]c2ccccc12)NC(=O)[C@H](CCCCN)NC(=O)[C@@H](N)Cc1c[nH]c2ccccc12)C(=O)N[C@H](C(=O)N[C@H](CCSC)C(N)=O)C(C)C
B13: Met-Val-D-Met-NH2 (peptide)
peptide: Met-Val-[dM]-NH2
modifications: N-terminus assumed
SMILES: CSCC[C@H](N)C(=O)N[C@H](C(=O)N[C@H](CCSC)C(N)=O)C(C)C
B14: Trp-Lys-Arg-Met-Val-D-Met-NH2 (peptide)
peptide: WKRMV[dM]-NH2
modifications: N-terminus assumed
SMILES: CSCC[C@H](NC(=O)[C@H](CCCNC(=N)N)NC(=O)[C@H](CCCCN)NC(=O)[C@@H](N)Cc1c[nH]c2ccccc12)C(=O)N[C@H](C(=O)N[C@H](CCSC)C(N)=O)C(C)C

These binders were tested against T1, formyl peptide receptor (assay: cell-based or functional assay).

Q: With B1 as the binder, how does the “[Ca^2+]i increase in FPR-expressing RBL-2H3 cells” value (“[Ca^2+]i increase” for short) read?
A: The value was greater than 20 µM.

Q: Which “[Ca^2+]i increase” value does the source give for WKYMVW-NH2 [Trp-Lys-Tyr-Met-Val-Trp-NH2] here?
A: Its value is greater than 20 µM.

Q: For WKYMVG-NH2 [Trp-Lys-Tyr-Met-Val-Gly-NH2], which “[Ca^2+]i increase” value is on record?
A: Its value is greater than 20 µM.

Q: Which “[Ca^2+]i increase” value does the source give for WKYMVR-NH2 [Trp-Lys-Tyr-Met-Val-Arg-NH2] here?
A: The value was greater than 20 µM.

Q: How did the “[Ca^2+]i increase” value turn out when B2 was run?
A: Its value is greater than 20 µM.

Q: WKYMVE-NH2 [Trp-Lys-Tyr-Met-Val-Glu-NH2] was tested. Which “[Ca^2+]i increase” value did it give?
A: Its value is greater than 20 µM.

Q: With WKYMVV-NH2 [Trp-Lys-Tyr-Met-Val-Val-NH2] as the binder, how does the “[Ca^2+]i increase” value read?
A: Its value is greater than 20 µM.

Molecular target: T1, formyl peptide receptor
Test: cell-based or functional assay
Remark: another data set of the same source

Q: For B3, which “EC50 of intracellular calcium increase in FPR-expressing RBL-2H3 cells (fura-2)” value is on record?
A: The value was 317 nM.

Q: B4 was tested. Which “EC50 of intracellular calcium increase in FPR-expressing RBL-2H3 cells (fura-2)” value did it give?
A: The value was 54.9 nM.

Q: For YMV[dM]-NH2 [Tyr-Met-Val-D-Met-NH2], which “EC50 of intracellular calcium increase in FPR-expressing RBL-2H3 cells (fura-2)” value is on record?
A: Its value is 569 nM.

Q: Which “EC50 of intracellular calcium increase in FPR-expressing RBL-2H3 cells (fura-2)” value does the source give for B5 here?
A: Its value is 98.9 nM.

Q: Which “EC50 of intracellular calcium increase in FPR-expressing RBL-2H3 cells (fura-2)” value does the source give for B6 here?
A: The value was 1330 nM.

Q: B7 was tested. Which “EC50 of intracellular calcium increase in FPR-expressing RBL-2H3 cells (fura-2)” value did it give?
A: The value was 17.7 nM.

Q: Which “EC50 of intracellular calcium increase in FPR-expressing RBL-2H3 cells (fura-2)” value does the source give for B8 here?
A: The value was 1330 nM.

Q: For B9, which “EC50 of intracellular calcium increase in FPR-expressing RBL-2H3 cells (fura-2)” value is on record?
A: The value was 665 nM.

Q: Which “EC50 of intracellular calcium increase in FPR-expressing RBL-2H3 cells (fura-2)” value does the source give for B10 here?
A: The value was 31.7 nM.

Q: Which “EC50 of intracellular calcium increase in FPR-expressing RBL-2H3 cells (fura-2)” value does the source give for B11 here?
A: Its value is 280 nM.

Q: Which “EC50 of intracellular calcium increase in FPR-expressing RBL-2H3 cells (fura-2)” value does the source give for B12 here?
A: The value was 18.8 nM.

Each binder was assayed against T2, formyl peptide receptor-like 1 (assay: cell-based or functional assay).

Q: With B3 as the binder, how does the “EC50 of intracellular calcium increase in FPRL1-expressing RBL-2H3 cells (fura-2)” value read?
A: The value was 5.23 nM.

Q: Which “EC50 of intracellular calcium increase in FPRL1-expressing RBL-2H3 cells (fura-2)” value does the source give for B4 here?
A: Its value is 0.12 nM.

Q: B1 was tested. Which “EC50 of intracellular calcium increase in FPRL1-expressing RBL-2H3 cells (fura-2)” value did it give?
A: Its value is 18.1 nM.

Q: How did the “EC50 of intracellular calcium increase in FPRL1-expressing RBL-2H3 cells (fura-2)” value turn out when WKYMVW-NH2 [Trp-Lys-Tyr-Met-Val-Trp-NH2] was run?
A: The value was 194 nM.

Q: Which “EC50 of intracellular calcium increase in FPRL1-expressing RBL-2H3 cells (fura-2)” value does the source give for YMV[dM]-NH2 [Tyr-Met-Val-D-Met-NH2] here?
A: Its value is 17.1 nM.

Q: With WKYMVG-NH2 [Trp-Lys-Tyr-Met-Val-Gly-NH2] as the binder, how does the “EC50 of intracellular calcium increase in FPRL1-expressing RBL-2H3 cells (fura-2)” value read?
A: Its value is 5950 nM.

Q: For B5, which “EC50 of intracellular calcium increase in FPRL1-expressing RBL-2H3 cells (fura-2)” value is on record?
A: The value was 14.3 nM.

Q: How did the “EC50 of intracellular calcium increase in FPRL1-expressing RBL-2H3 cells (fura-2)” value turn out when B13 was run?
A: The value was greater than 30000 nM.

Q: Which “EC50 of intracellular calcium increase in FPRL1-expressing RBL-2H3 cells (fura-2)” value does the source give for B6 here?
A: Its value is 28.3 nM.

Q: How did the “EC50 of intracellular calcium increase in FPRL1-expressing RBL-2H3 cells (fura-2)” value turn out when B7 was run?
A: Its value is 0.23 nM.

Q: For WKYMV-NH2 [Trp-Lys-Tyr-Met-Val-NH2], which “EC50 of intracellular calcium increase in FPRL1-expressing RBL-2H3 cells (fura-2)” value is on record?
A: Its value is 918 nM.

Q: B8 was tested. Which “EC50 of intracellular calcium increase in FPRL1-expressing RBL-2H3 cells (fura-2)” value did it give?
A: Its value is 8.73 nM.

Q: With B9 as the binder, how does the “EC50 of intracellular calcium increase in FPRL1-expressing RBL-2H3 cells (fura-2)” value read?
A: Its value is 0.29 nM.

Q: With B14 as the binder, how does the “EC50 of intracellular calcium increase in FPRL1-expressing RBL-2H3 cells (fura-2)” value read?
A: The value was 2.06 nM.

Q: With WKYMVR-NH2 [Trp-Lys-Tyr-Met-Val-Arg-NH2] as the binder, how does the “EC50 of intracellular calcium increase in FPRL1-expressing RBL-2H3 cells (fura-2)” value read?
A: Its value is 178 nM.

Q: Which “EC50 of intracellular calcium increase in FPRL1-expressing RBL-2H3 cells (fura-2)” value does the source give for B2 here?
A: Its value is 21.3 nM.

Q: For WKYMVE-NH2 [Trp-Lys-Tyr-Met-Val-Glu-NH2], which “EC50 of intracellular calcium increase in FPRL1-expressing RBL-2H3 cells (fura-2)” value is on record?
A: The value was 503 nM.

Q: Which “EC50 of intracellular calcium increase in FPRL1-expressing RBL-2H3 cells (fura-2)” value does the source give for KYMV-NH2 [Lys-Tyr-Met-Val-NH2] here?
A: The value was greater than 30000 nM.

Q: How did the “EC50 of intracellular calcium increase in FPRL1-expressing RBL-2H3 cells (fura-2)” value turn out when WKYMVV-NH2 [Trp-Lys-Tyr-Met-Val-Val-NH2] was run?
A: The value was 1260 nM.

Q: With B10 as the binder, how does the “EC50 of intracellular calcium increase in FPRL1-expressing RBL-2H3 cells (fura-2)” value read?
A: The value was 0.72 nM.

Q: Which “EC50 of intracellular calcium increase in FPRL1-expressing RBL-2H3 cells (fura-2)” value does the source give for B11 here?
A: Its value is 1.94 nM.

Q: With B12 as the binder, how does the “EC50 of intracellular calcium increase in FPRL1-expressing RBL-2H3 cells (fura-2)” value read?
A: Its value is 0.16 nM.
